Data: paper PMC2639713

Target: T1, mini-vRNAP K176C/S885C (Bacteriophage N4 (coliphage), UniProt Q859P9 998-2103, K1173C;S1882C)
T1 sequence: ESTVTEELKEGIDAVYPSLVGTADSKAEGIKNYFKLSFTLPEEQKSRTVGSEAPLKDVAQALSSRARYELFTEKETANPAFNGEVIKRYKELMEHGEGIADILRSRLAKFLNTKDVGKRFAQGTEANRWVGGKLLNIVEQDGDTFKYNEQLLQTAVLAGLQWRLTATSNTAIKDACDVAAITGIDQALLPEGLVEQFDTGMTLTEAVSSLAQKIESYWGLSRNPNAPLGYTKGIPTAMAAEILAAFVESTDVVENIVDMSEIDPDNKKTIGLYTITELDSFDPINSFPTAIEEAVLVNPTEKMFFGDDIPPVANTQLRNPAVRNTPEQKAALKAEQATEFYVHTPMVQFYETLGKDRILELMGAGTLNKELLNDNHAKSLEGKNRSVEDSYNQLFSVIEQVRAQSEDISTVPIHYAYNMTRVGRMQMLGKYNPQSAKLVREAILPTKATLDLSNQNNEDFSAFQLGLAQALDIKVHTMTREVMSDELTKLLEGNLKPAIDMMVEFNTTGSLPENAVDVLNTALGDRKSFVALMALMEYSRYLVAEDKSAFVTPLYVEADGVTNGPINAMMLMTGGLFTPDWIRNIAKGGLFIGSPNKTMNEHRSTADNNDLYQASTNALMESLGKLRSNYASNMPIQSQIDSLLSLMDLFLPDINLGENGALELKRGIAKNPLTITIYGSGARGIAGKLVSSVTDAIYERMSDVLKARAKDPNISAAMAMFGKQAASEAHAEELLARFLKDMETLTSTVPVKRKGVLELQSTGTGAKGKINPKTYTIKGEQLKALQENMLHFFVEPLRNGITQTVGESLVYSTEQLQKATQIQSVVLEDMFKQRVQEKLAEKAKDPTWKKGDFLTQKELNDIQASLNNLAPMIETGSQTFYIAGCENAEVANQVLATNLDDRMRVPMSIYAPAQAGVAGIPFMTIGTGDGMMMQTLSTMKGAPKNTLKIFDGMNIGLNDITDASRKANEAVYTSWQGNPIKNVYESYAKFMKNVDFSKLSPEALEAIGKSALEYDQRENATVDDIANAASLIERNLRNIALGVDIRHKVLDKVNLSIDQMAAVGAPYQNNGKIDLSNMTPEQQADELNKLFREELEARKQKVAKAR
Test: UV cross-linking

B1: 13mer -11 5-IdU promoter hairpin (-17 to -5) (structured_DNA)
DNA: GAAGCGTAGCTTC
modifications: 5-iodo-dU at position 7 (-11), written as T
- binding result: binds
